The record followed here is article doi:10.1101/2025.10.04.680454.

Experiment [1] addresses Mb-1 A14V displayed on the yeast cell surface (minibinder-HA-AGA2). Description: flow cytometry on cells. For orientation: In flow cytometry, cells or beads pass a laser one at a time.
Experiment [2] deals with Mb-1 P29S displayed on the yeast cell surface (minibinder-HA-AGA2). Briefly: flow cytometry on cells.
In experiment [3] the target is Mb-1 (parental minibinder), N-terminal polyhistidine tag. Briefly: SPR. In general terms: SPR reads the build-up and loss of mass on a sensor chip optically.
Experiment [4] addresses Mb-4 (parental minibinder), N-terminal polyhistidine tag. Briefly: SPR.
Experiment [5] has as its target all four evolved minibinders (purified proteins). Briefly: SPR.
For experiment [6], the target named is evolved Mb-1 (affinity matured variant), N-terminal polyhistidine tag. Briefly: SPR.

As usually defined, the Kd is the equilibrium constant for the complex coming apart.

B1: human IL-7Rα fused to a human IgG single-chain Fc tag (Fc fusion)
chain: ESGYAQNGDLEDAELDDYSFSCYSQLEVNGSQHSLTCAFEDPDVNITNLEFEICGALVEVKCLNFRKLQEIYFIETKKFLLIGKSNICVKVGEKSLTCKKIDLTTIVKPEAPFDLSVVYREGANDFVVTFNTSHLQKKYVKVLMHDVAYRQEKDENKWTHVNLSSTKLTLLQRKLQPAAMYEIKVRSIPDHYFKGFWSEWSPSYYFRTPEINNSSGEMD
Turning to B1, the values for the Δ-log10[KD] against parental Mb-1 in experiment [1] and in experiment [2] were 1.18 and 0.03, respectively.

B2: human IL-7Rα extracellular domain (residues 37-231) with a C-terminal C-tag (domain or fragment)
chain: DYSFSCYSQLEVNGSQHSLTCAFEDPDVNITNLEFEICGALVEVKCLNFRKLQEIYFIETKKFLLIGKSNICVKVGEKSLTCKKIDLTTIVKPEAPFDLSVVYREGANDFVVTFNTSHLQKKYVKVLMHDVAYRQEKDENKWTHVNLSSTKLTLLQRKLQPAAMYEIKVRSIPDHYFKGFWSEWSPSYYFRTPEI
For the molecule B2, the Kd in experiment [3] was above 1000 nM; in experiment [4], 7.8 nM; in experiment [5], 0.56 to 34 nM; in experiment [6] it was 2.1 nM.
